assay: yeast display, Sf9 membrane polyspecificity reagent, FACS + sequencing; frameworks hold sequencing errors
Method in brief: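 A synthetic nanobody library was expressed on Saccharomyces cerevisiae BJ5465 by galactose induction for 36–48 hours. The library was stained for 1 hour at 4 °C with 10% biotinylated, detergent-solubilized Sf9 membrane reagent and enriched with streptavidin microbeads before FACS. Low and high (top ~1%) gates were set on anti-HA fluorescence for expression and streptavidin fluorescence for reagent binding, and each polyreactivity label reflects the gate of origin.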

| Sequence | polyreactivity (PSR sort gate) |
| --- | --- |
| QVQLVESGGGLVQAGGSLRLSCAASGSILYYYAMGWYRQAPGKERELVAAISWSGASTYYADSVKGRFTISRDNAKNTVYLQMNSLKPEDTAVYDCATSYTKQGFRYYYWGQGTQVTVSS | high polyreactivity |
| QVQLVESGGGLVQAGGSLRLSCAASGSILYYYTMGWYRQAPGQDRELVAAITSSGGSTYYADSVKGRFTISRDNATKTVYLQMNSLKPEDTAVDYCNVDSGRSYRVARYDYWGQGTQVTVSS | low polyreactivity |
| QVQLVESGGGLVQAGGSLRLSCAASGSIMGWSRQAPGTERELVAAISRGGSTYYADSVKGRFTISRDNAKNTVYLQMNSLKPEDTAVYYCAAKTGGSRSRFEYWGQGTQVTVSS | high polyreactivity |
| QVQLVESGGGLVQAGGSLRLSCAASGSISATYAKGWYRQAPGKERELVAAISRNGGSTYYADSVKGRFTISRDNAKNTVYLQMNSLKPEDTAVYYCATSSSKSMYWGQGTQVTVSS | high polyreactivity |
| QVQLVESGGGLVQAGGSLRLSCAASGSISGLYAKGWYRQAPGKERELVAAITFRDGTTSYADSVKGRFTISRDNAKNTVYLQMNSLKPEDTAVYYCAAVDRDSNSSVPTLVHWGQGTQVTVSS | low polyreactivity |
| QVQLVESGGGLVQAGGSLRLSCAASGSISGYYAMGWYRQAPGKERELVASIRYTGARTYYADSVKGRFTISRDNAKNTVYLQMNSLKPEDTAVYYCAADFKRDRVWGGDYWGQGTQVTVSS | low polyreactivity |
| QVQLVESGGGLVQAGGSLRLSCAASGSISGYYAMGWYRQAPGKERELVASIRYTGARTYYADSVKGRFTSSRDNAKNTVYLQMNRLKPEDTAVFYCAADKVQYEGDAYGPPQYDYWGQGTQVTVSS | low polyreactivity |
| QVQLVESGGGLVQAGGSLRLSCAASGSISGYYVMGWYRQAQGKERELVAAITWRGGSTYYADSVKGRFTISRDNAKNTVYLQMNSLKPEDTAVYYCNKVPGRGSTFEYWGQGTQVTVSS | high polyreactivity |
| QVQLVESGGGLVQAGGSLRLSCAASGSISIGYTMGWYRQAPGKERELVATISWSGGNTYYADSVKGRFTISRDNAKNTVYLQMNSLKPEDTAVYYCAGRWYYYPLLYDYWGQGTQVTVSS | low polyreactivity |
| QVQLVESGGGLVQAGGSLRLSCAASGSISIGYTMGWYRQSPGKERDLVATISWSGGNTYYADSVKGRFTIARDNAKNTVYLQINSLKPEDSAVYYFAARWYYYPLLYDYWGQGTQVTVSS | low polyreactivity |
| QVQLVESGGGLVQAGGSLRLSCAASGSISIRNAMGWYRQAPGKERELVAAISRGGSTYYADSVKGRFTISRDNAKNKVYLQMNSLKPEDTAVYYCNVLHLRRTAIMDYWGQGTQVTVSS | high polyreactivity |
| QVQLVESGGGLVQAGGSLRLSCAASGSISIVYTMGWYRQAPGKERELVATISWSGGNTYYADSVKGRFTISRDYAKNTVYLQMNSLKPEDTAVYYCAARWYYYPLLYDYWGQGTQVTVSS | low polyreactivity |
| QVQLVESGGGLVQAGGSLRLSCAASGSISRYYAMGWYRQAPGKERELVAAISSNGGSTYYADSVKGRFTISRDNAKNTVYLQMNSLKPEDTAVYYCNAYYVGYIRYWTNKLVDYWGQGTQVTVSS | high polyreactivity |
| QVQLVESGGGLVQAGGSLRLSCAASGSISSFYAMGWYRQAPGKERELVAGITSGGSTNYADSVNGRFTISRDNAKNTVYLKLNSLNPEDTAVFYCAAERTPSYRAYDYWGKGTQVTVSS | low polyreactivity |
| QVQLVESGGGLVQAGGSLRLSCAASGSISSKNAMGWYRQAPGKEREFVAVISGTGGSTYYADSVKGRLTISRDNAKNTVYLQMNSLKPEDTAVYYCAAAASSIVSYGYTWTYGYWGQGTQVTVSS | low polyreactivity |
| QVQLVESGGGLVQAGGSLRLSCAASGSISSQYAMGWYRQAPGKERELVAAISYSGGSTYYADSVKGRFTISRDNAKNTVYLQMNSLKPEDTAVYYCAAETSYYTRWFDGHYYYWGQGTQVTVSS | high polyreactivity |

| Sequence | polyreactivity (PSR sort gate) |
| --- | --- |
| QVQLVESGGGLVQAGGSLRLSCAASGSISSVNVMGWYRQAPGKERELVAAISSGTSTHYADSVKGRFTISRDNAKNTVYLQMNSLKPVDTAVYYCAAYFYRQYLYFLYEYDYWGQGTQVTVSS | low polyreactivity |
| QVQLVESGGGLVQAGGSLRLSCAASGSISTVNVMGWYRQAPGKERELVAAISSGTSTHYADSVKVRFTISRDNAKNTVYLQMNSLKPEDTAVYYCAAYFYRQYLYFLYEYDYWGQGTQVTVSS | low polyreactivity |
| QVQLVESGGGLVQAGGSLRLSCAASGSISWHYAMGWYRQAPGKERELVASISTDGGTTYYADSVKGRFTISRDNAKNTVYLQMNSLKPEDTAVYYCAAEWYWVYYVPYEYWGQGTQVTVSS | low polyreactivity |
| QVQLVESGGGLVQAGGSLRLSCAASGSISYANALGWYRQAPGKERELVAAISGSGGSTYYADSVKGRFTISRDNAKNTVYLQMNSLKPEDTAVYYCAARGFPPGDEWHPYDYWGQGTQVTVSS | low polyreactivity |
| QVQLVESGGGLVQAGGSLRLSCAASGSISYDYAMGWDRQAPGKERELVASITSRGGSTYADSVKGRFTISRDKAKNTVYLQMNSLKPEDTAVYYCAADAIPNLIFISLPFGLDYWGQGTQVTVSS | low polyreactivity |
| QVQLVESGGGLVQAGGSLRLSCAASGSISYQNAMGWYRQAPGKERELVAAITSSGGNTYYADSVKGRFTISRDNAKNTVYLQMNSLKPEDTAVYYCNAVLYYDSYLYYYWGQGTQVTVSS | low polyreactivity |
| QVQLVESGGGLVQAGGSLRLSCAASGSISYRYDKGWYRQAPGKEMELVATIRSGGSTNYADSVKGRFTISRDTAKNTVYLQMNSLKPEDTAVYYGAARLYARKKLHFSADSDYWGQGTQVTVSS | low polyreactivity |
| QVQLVESGGGLVQAGGSLRLSCAASGSIVAGYAMGWYRQAPGKEREMVAAISDSGGNTYYADSVKGRFTISRDNAKNTVYLQMNSLKPEDTAVYYCAADLGYGPLRELEYWGQGTQVTVSS | low polyreactivity |
| QVQLVESGGGLVQAGGSLRLSCAASGSIVGGYDMGWYRQAPGKERELVAVINSNGGSTYYADSVKGRFTISRDNANNTVYLQMNSLKPEDTAVYYCAADYESYVYIGYGYWGQGTQVTVSS | low polyreactivity |
| QVQLVESGGGLVQAGGSLRLSCAASGSIVGRYAMGWYSQAPGQERELVAAISTGDSTYYADSVKGRFTISRDNAKNTVYLQMNSLKPEDTAVYYCNRRGRRVYDYWGQGTQVTVSS | high polyreactivity |
| QVQLVESGGGLVQAGGSLRLSCAASGSIVGYYFMGWYRQAPGKERELVAAITRSGSTYYADSVKGRFTISRDNEKNTVYLQMNSLKPEDTAVYYCAADGSYYWYTHTTYDYWGQGTQVTVSS | low polyreactivity |
| QVQLVESGGGLVQAGGSLRLSCAASGSIVNIYAMGWYRQAPGKERQLVARISCSGVSTYYADSVKGRLTISRDHAKNTVYLQMNSLKREDTAVYDCAARYGRVYYYGWYWLYYWGQGTQVTVSS | high polyreactivity |
| QVQLVESGGGLVQAGGSLRLSCAASGSIVNYYAMGWYRPAPGKERELVAAITSGGSTYYADSVKGRFTISRDNAKNTVYLQMNSLKAEDTAVYYCNKAFPYIYDYWGQGTQVTVSS | low polyreactivity |
| QVQLVESGGGLVQAGGSLRLSCAASGSIVNYYAMGWYRQAPGKERELVAAITWSGGRTYSADSVKGRFTSSRDNAKNTVYLQMNSLKPEDTAVYYCATAPVRIRDILFSPRMDYWGLGTQVTVSS | low polyreactivity |
| QVQLVESGGGLVQAGGSLRLSCAASGSIVVWNDMGWYRQAPGTEREFVAAITSRDGSTYYADSVKGRFTISRDNAKNTVYLQMNSLKPEDTAVYYCAARLRVTVFYSRTRYYWGQGTQVTVSS | low polyreactivity |

Source: the nanobody polyreactivity screen of Harvey et al. (2022)
